We go through three molecules from PMC12301738 (The Journal of Biological Chemistry, 2025).

As usually defined, the EC50 is the midpoint of the concentration-response curve.

Sequences and labels used below:
T1: Escherichia coli RelE toxin, fluorescently labeled (RED-NHS) (Escherichia coli, UniProt P0C077)
T1 sequence: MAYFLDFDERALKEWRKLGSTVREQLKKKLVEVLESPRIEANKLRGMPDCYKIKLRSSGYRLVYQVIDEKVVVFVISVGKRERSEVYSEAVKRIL

B1: Escherichia coli RelB antitoxin, wildtype (His6-RelB) (natural protein)
chain: MGSINLRIDDELKARSYAALEKMGVTPSEALRLMLEYIADNERLPFKQTLLSDEDAELVEIVKERLRNPKPVRVTLDEL
B2: Escherichia coli RelB antitoxin truncated at Lys70 (His6-RelBΔ70–79) (domain or fragment)
chain: MGSINLRIDDELKARSYAALEKMGVTPSEALRLMLEYIADNERLPFKQTLLSDEDAELVEIVKERLRNP
B3: Escherichia coli RelB antitoxin with a stop codon at Leu66 (His6-RelBΔ66–79) (domain or fragment)
chain: MGSINLRIDDELKARSYAALEKMGVTPSEALRLMLEYIADNERLPFKQTLLSDEDAELVEIVKER

This experiment has as its target T1, Escherichia coli RelE toxin, …. Nature of the experiment: other fluorescence titration.
B1 returned a concentration for a half-maximal effect (EC50) of 2.6 nM.
B2 returned an EC50 of 880 nM.
Regarding B3, it took 24000 nM to reach a half-maximal effect (EC50).
